B1: TPR t1 (parent)
chain: GACCAAUCUGCCCUCAGAGCUCGAGAACAUCUUCGGAUGCAGAGGAGGCAGGCUUCGGUGGCGCGAUAGCGCCAACGUCCUCAACCUCCAAUGCAUCCCACCACAUGAUGAUGCCUGAAGAGCCUUGGUUUUUUG

In the data set the parent is B1. As to the kind of experiment: polymerase ribozyme fitness, log enrichment relative to wild type (log ratio); higher = more active; in vitro selection for triplet polymerase activity. The procedure, abridged:
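Fitness measures genotype enrichment against wild-type enrichment on a logarithmic scale, with inverse-variance-weighted averaging of replicates. The logarithm is base 2, and genotypes were kept only with ≥10 input reads and ≥1 read per output in Illumina sequencing. The sequenced libraries came from one triplicate in vitro selection round, including frozen incubation at −7 °C, of PCR-built, transcribed mutant libraries of each subunit of a heterodimeric triplet polymerase ribozyme.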
Turning to C34U G61C C80U A83G, the “polymerase ribozyme fitness (log ratio)” value is -7.08.
Next, G35A C53G C104U G117U C124G U126G: -5.98; U33G G48U A105C U126G G127C: -6.34; G35A C56U C72U: -4.68.
Next, C34U C56A C82A A83U C97A A121U: -5.4; C34U G60A C124A: -3.3.
Next, G35A U87G: -3.91; C34U A37G C64U U78C G113U U125G: -5.79.
As for U33G C49G C53G G61U, the “polymerase ribozyme fitness (log ratio)” value was -7.57.
Next, U33A G42A G52U G61A A121U: -5.46.
Next, C34A G48U G93C: -4.96; C34A C53U C98A: -1.98.
Next, C34A C53A G61C: -5.6; C34A C86A: -3.67.
C34U C88G C123G: the “polymerase ribozyme fitness (log ratio)” value is -3.83.
C34A U78A: the “polymerase ribozyme fitness (log ratio)” value was -3.26.
Next, C34G C101U: -6.46; U33G C73G G93U A121G: -5.53; C34G C56A U106C: -6.
Regarding U33C G63U A111U A121C C124A, the “polymerase ribozyme fitness (log ratio)” value was -6.83.
Take C34U C40U U54C: the “polymerase ribozyme fitness (log ratio)” value was -4.99.
To C34G belongs -6.09.
With C34A, the “polymerase ribozyme fitness (log ratio)” value is -2.52.
Next, C34U: -4.05; C34U C72U: -4.07; U33C: -3.31.
Consider U33G, for which the “polymerase ribozyme fitness (log ratio)” value is -5.67.
Next, G35A C124G: -2.
To C34G G35C G63U A111U belongs -5.76; to C34A G110A, -5.44.
Next, U33A U81A C102G G110C C115G: -6.08; U33C A43U: -5.07; C34U A100C: -3.69.
Take G35A C101G: the “polymerase ribozyme fitness (log ratio)” value is -5.52.
Next, C34G U112A U130C: -6.03.
In the case of G35A G63A, the “polymerase ribozyme fitness (log ratio)” value was -3.91.
To G35A G63C belongs -5.56.
To C34A C88U belongs -2.2.
Next, C34A G60C: -3.4; C34G A91G C114A U132A: -6.48; C34G G57C C72A A100C: -4.64.
Take C34U G61C C94U C98U G120U G127U: the “polymerase ribozyme fitness (log ratio)” value is -5.79.
Turning to G35A G58A U78A C104U, the “polymerase ribozyme fitness (log ratio)” value is -4.33.
Next, C34G G61A: -5.85; C34G G61C C99A U112G U116G: -6.27; G35A G45A: -4.16.
With C34A G120C U130G, the “polymerase ribozyme fitness (log ratio)” value was -3.21.
To C34A G44C G60U A121G belongs -2.34; to U33G G63C U112G U129A, -7.08.
Next, U33A G48C: -5.1; G35A G52U: -3.5; G35A G117C: -6.51.
To G35A G117U belongs -5.09; to C34A A37U G48U C64G A68G C94G G120U, -7.45; to C34G G45C G69A A90U U92A G113A, -7.28.
Take U33G G63U A90U A111G G120C: the “polymerase ribozyme fitness (log ratio)” value was -6.96.
To C34U C73A belongs -4.32.
To C34U C73U belongs -3.35; to G35A C53G C62U G77C A84C, -4.08.
To G35A G42A G61A U106A U112G A121C G127U G128A belongs -6.38.
Consider C34U C94G, for which the “polymerase ribozyme fitness (log ratio)” value is -5.95.
To C34U A41G C53U belongs -4.95; to U33C G63A U78C C80A C99A C102A U116G, -6.04.
Consider C34G C97U C123A, for which the “polymerase ribozyme fitness (log ratio)” value is -6.44.
Consider C34U G69A, for which the “polymerase ribozyme fitness (log ratio)” value is -5.14.
Regarding U33G C72G C86A A91C, the “polymerase ribozyme fitness (log ratio)” value was -7.55.
Next, C34U C85U C102U: -3.64; C34A A41G C88U C101U: -3.38.
In the case of C34U C64U G93A A105C C114U, the “polymerase ribozyme fitness (log ratio)” value is -5.2.
In the case of C34A A37G C53U U78G, the “polymerase ribozyme fitness (log ratio)” value is -2.19.
As for C34U G117A, the “polymerase ribozyme fitness (log ratio)” value was -5.61.
To C34G G44A G71A A90G C101U A121U belongs -6.41.
On to C34G G39C G120U, for which the “polymerase ribozyme fitness (log ratio)” value is -6.09.
G35A C123G U129G: the “polymerase ribozyme fitness (log ratio)” value was -2.61.
Consider U33C C79U, for which the “polymerase ribozyme fitness (log ratio)” value is -4.51.
Next, G35A: -3.65; G35C: -4.55; U33A G69A C79A A121G: -6.8.
To U33A G52U G61C C115A belongs -4.91.
To C34U G69U A105U G120U belongs -2.74; to C34U G35U, -4.9.
On to C34U U81C, for which the “polymerase ribozyme fitness (log ratio)” value was -5.69.
To C34U U81A belongs -5.06; to C34A C70U G120C, -4.45; to U33G C94G G113A, -5.56.
Next, C34G C40U G113A C124A: -7.14.
To C34A C85U A118U U130A U132C belongs -3.6; to G35A G60U, -3.33.
In the case of C34A U59C U112G, the “polymerase ribozyme fitness (log ratio)” value is -4.39.
To U33C C56A belongs -4.11.
Next, G35A A66G: -6.38.
Consider G35A U59C, for which the “polymerase ribozyme fitness (log ratio)” value is -4.9.
Next, C34A A43U G61A C88U A119G A121C: -4.91.
To G35A C99U U112A belongs -3.32; to C34U G51U G61A C114U, -6.98; to G35A C56U C72U G113A U133A, -5.8.
To C34A C76U G120C belongs -3.22; to U33G G36C, -7.66.
Consider C34A A50U G61A G71C C123G, for which the “polymerase ribozyme fitness (log ratio)” value was -6.98.
Next, G35A G120C C124A: -3.97.
On to C34A U131A, for which the “polymerase ribozyme fitness (log ratio)” value was -1.94.
Next, U33C U38A C49G A103C G113U G117A: -6.59.
Next, C34A C72G: -3.33; C34G G120U: -4.75; U33G A84C: -6.66.
To C34U G58A C97U C123G belongs -5.6; to C34A G57A C72U G93A, -5.18; to C34U G44A G69A, -7.2.
Regarding C34G G36A C49A C86U C124A, the “polymerase ribozyme fitness (log ratio)” value was -6.09.
Next, C34U U78G: -5.06; C34A G120A C124G U133A: 0.189.
To C34G A43G C53A A111C C123G belongs -6.97; to C34A C124G U130G, -0.7.
Next, G35A U55C C115U: -5.27; U33G C79G: -6.57; C34A C56U: -2.12.
C34A C56A: the “polymerase ribozyme fitness (log ratio)” value was -3.11.
As to C34A G117A, the “polymerase ribozyme fitness (log ratio)” value is -3.53.
To C34A G117C belongs -4.31.
Next, C34A U54G C56A: -4.3; C34A A37C C72U A118G: -2.87; C34U A41U G63U U109A C115A: -5.59.
To C34U G63A A90G belongs -6.16; to U33A C114U, -4.64; to C34G C86U, -6.51.
Take G35A C89A: the “polymerase ribozyme fitness (log ratio)” value was -5.84.
Next, C34U C56U C115A: -4.02; U33A G57U: -4.65.
Next, C34A G58A C89U A121G: -2.92.
To U33C G69A A83C U96C A119U C124A G127U belongs -5.27.
With C34G A68C G113U U126A U133C, the “polymerase ribozyme fitness (log ratio)” value was -5.64.
Next, C34A G63U G120A: -4.37.
Next, C34A A41U G61C G120U: -6.86.
As for C34A C94A, the “polymerase ribozyme fitness (log ratio)” value is -4.19.
Next, C34U C104U U112C: -2.1; U33G C49G G58C A121C: -6.04.
To U33C A46G C88U A121U belongs -6.28; to U33C C124U, -3.97.
G35A G120A: the “polymerase ribozyme fitness (log ratio)” value was -2.08.
With C34U C73A A111U C114G G135A, the “polymerase ribozyme fitness (log ratio)” value is -6.34.
Regarding C34A G45C C53A G60U C124A, the “polymerase ribozyme fitness (log ratio)” value was -1.69.
To C34U U112C C124A belongs -1.63; to C34U C73A C102U C123A, -3.14; to C34G G47C C104A C124A, -5.21.
In the case of C34A C114A, the “polymerase ribozyme fitness (log ratio)” value is -4.47.
Next, C34U G42C: -6.44.
Next, C34U U59A C94U: -5.57.
To C34U G60A belongs -5.21; to C34U G60U, -3.24; to C34U C64U G113U, -5.9.
With G35A A74U C101U, the “polymerase ribozyme fitness (log ratio)” value is -4.34.
To U33A U116C belongs -6.14.
Next, G35A G69C C115U: -6.53.
In the case of C34U A43G G63A G65U C124A, the “polymerase ribozyme fitness (log ratio)” value is -6.99.
To G35A C73A U78G A90G C115G A121C belongs -4.57; to C34A A103C, -4.26; to G35A C62A A119G, -4.46.
For G35A U131C, the “polymerase ribozyme fitness (log ratio)” value was -6.04.
To C34U C62G belongs -6.83; to C34A C73U A74U, -3.25.
Next, G35A U116C: -3.83; C34U A41U C72U A105C G113C: -7.42; C34A A37G: -2.73.
To C34U G47C A66C G71A G110C U129C belongs -6.98; to C34A C70G C72G C82G, -6.51; to C34A G93C, -3.62.
For the variant C34A G93A, the “polymerase ribozyme fitness (log ratio)” value is -2.95.

The record behind these values is the RNAGym collection of RNA variant scans (doi:10.1073/pnas.2313332121).
